Measurements taken from paper PMC6797804, “Histone H3K23-specific acetylation by MORF is coupled to H3K14 acylation” (Nature Communications, 2019).

B1: FLAG-MORF F287A: FLAG-tagged MORFN F287A mutant defective in histone H3 binding, expressed in 293T cells (protein, UniProt Q8WYB5 1-716, looked up, variant F287A)
chain: MVKLANPLYTEWILEAIQKIKKQKQRPSEERICHAVSTSHGLDKKTVSEQLELSVQDGSVLKVTNKGLASYKDPDNPGRFSSVKPGTFPKSAKGSRGSCNDLRNVDWNKLLRRAIEGLEEPNGSSLKNIEKYLRSQSDLTSTTNNPAFQQRLRLGAKRAVNNGRLLKDGPQYRVNYGSLDGKGAPQYPSAFPSSLPPVSLLPHEKDQPRADPIPICSFCLGTKESNREKKPEELLSCADCGSSGHPSCLKFCPELTTNVKALRWQCIECKTCSACRVQGRNADNMLACDSCDRGFHMECCDPPLSRMPKGMWICQVCRPKKKGRKLLHEKAAQIKRRYAKPIGRPKNKLKQRLLSVTSDEGSMNAFTGRGSPGRGQKTKVCTTPSSGHAASGKDSSSRLAVTDPTRPGATTKITTTSTYISASTLKVNKKTKGLIDGLTKFFTPSPDGRRSRGEIIDFSKHYRPRKKVSQKQSCTSHVLATGTTQKLKPPPSSLPPPTPISGQSPSSQKSSTATSSPSPQSSSSQCSVPSLSSLTTNSQLKALFDGLSHIYTTQGQSRKKGHPSYAPPKRMRRKTELSSTAKSKAHFFGKRDIRSRFISHSSSSSWGMARGSIFKAIAHFKRTTFLKKHRMLGRLKYKVTPQMGTPSPGKGSLTDGRIKPDQDDDTEIKINIKQESADVNVIGNKDVVTEEDLDVFKQAQELSWEKIECESGVEDC
modifications: residues 1-716 FLAG tag
B2: WT FLAG-MORF: FLAG-tagged wild-type MORFN (residues 1–716 of MORF) expressed in 293T cells (protein, UniProt Q8WYB5 1-716, looked up, fragment)
chain: MVKLANPLYTEWILEAIQKIKKQKQRPSEERICHAVSTSHGLDKKTVSEQLELSVQDGSVLKVTNKGLASYKDPDNPGRFSSVKPGTFPKSAKGSRGSCNDLRNVDWNKLLRRAIEGLEEPNGSSLKNIEKYLRSQSDLTSTTNNPAFQQRLRLGAKRAVNNGRLLKDGPQYRVNYGSLDGKGAPQYPSAFPSSLPPVSLLPHEKDQPRADPIPICSFCLGTKESNREKKPEELLSCADCGSSGHPSCLKFCPELTTNVKALRWQCIECKTCSACRVQGRNADNMLFCDSCDRGFHMECCDPPLSRMPKGMWICQVCRPKKKGRKLLHEKAAQIKRRYAKPIGRPKNKLKQRLLSVTSDEGSMNAFTGRGSPGRGQKTKVCTTPSSGHAASGKDSSSRLAVTDPTRPGATTKITTTSTYISASTLKVNKKTKGLIDGLTKFFTPSPDGRRSRGEIIDFSKHYRPRKKVSQKQSCTSHVLATGTTQKLKPPPSSLPPPTPISGQSPSSQKSSTATSSPSPQSSSSQCSVPSLSSLTTNSQLKALFDGLSHIYTTQGQSRKKGHPSYAPPKRMRRKTELSSTAKSKAHFFGKRDIRSRFISHSSSSSWGMARGSIFKAIAHFKRTTFLKKHRMLGRLKYKVTPQMGTPSPGKGSLTDGRIKPDQDDDTEIKINIKQESADVNVIGNKDVVTEEDLDVFKQAQELSWEKIECESGVEDC
modifications: FLAG tag
notes: FLAG-tagged wild-type MORFN (residues 1–716 of MORF) expressed in 293T cells

Tested on: promoters of target genes in 293T cells
Assay: ChIP in transfected 293T cells (FLAG-MORFN WT or F287A)
Format: cell-based
Method: Chromatin preparation from MEF, U2OS (ATCC HTB-96) and 293T cells were done as previously described. […] Next, 50 μl of Protein G Dynabeads for FLAG ChIP or 25 μl of Protein A Dynabeads was added to each sample and incubated for 4 h at 4 °C. The beads were washed extensively and eluted with 1% SDS and 0.1 M NaHCO3. Cross-linked samples were reversed by heating overnight at 65 °C in the presence of 0.2 M NaCl. Samples were then treated with RNase A and proteinase K for 2 h, and DNA was recovered by phenol-chloroform and ethanol precipitation. Quantitative real-time PCR corrected for primer efficiencies in the linear range were performed using SYBR Green I (Roche) on a LightCycler 480 (Roche).

[1] = corrected for total H3, two independent experiments

Molecule	association with promoters (FLAG ChIP) (compared to WT FLAG-MORF, two independent experiments)	H3K14ac level on promoters (ChIP) [1]	H3K23ac level on promoters (ChIP) [1]
B1	decreased association	H3K14ac level was unaffected by the mutation	expression of WT FLAG-MORF but not F287A mutant increases H3K23ac level
B2			increases H3K23ac level on these promoters
